Test results as given in PMC8163371.
Read-outs that look alike come from different tables or passages of the source.

Tests used:
[1] = molecular target: H3K9me2S28ph nucleosomes (individually reconstituted for quantitative measurements); test: MST
[2] = molecular target: H3K9me2S28ph nucleosomes (individually reconstituted for quantitative measurements); test: MST; remark: listed apart in the source
[3] = molecular target: H3K9me2S28ph nucleosomes (individually reconstituted for quantitative measurements); test: MST; remark: listed apart in the source
[4] = molecular target: H3K9me2 nucleosomes (individually reconstituted for quantitative measurements); test: MST
HP1β (HP1) [5] = molecular target: HP1β (HP1) (UniProt P83916); test: eCFP-HP1 retention on H2A + H3 nucleosome library; settings: reference: H3K9me2 nucleosomes; sites S28
HP1β (HP1) [6] = molecular target: HP1β (HP1) (UniProt P83916); test: eCFP-HP1 retention on immobilised nucleosome library; settings: reference: H3K9me2 nucleosomes; sites S28

Kd [1] [µM] | fold stronger binding than the H3K9me2 nucleosome on 187 bp DNA [1] [fold] | Kd [2] [µM] | Kd [3] [µM] | Kd [4] [µM] | fold change (HP1β (HP1) [5]) [fold] | other: fold enrichment over unmodified H3 nucleosomes (HP1β (HP1) [6]) | Substance
0.6 | 2 | 1.7 | 1.8 | 2.4 |  |  | HP1 without eCFP tag (human HP1β) (from UniProt P83916 1-185) (natural protein)
 |  |  |  |  | 2.3 | stronger; reference 4.8 | histone H3 H3K9me2S28ph nucleosomes
